# Reference: the DeepSol protein solubility set
# Test: soluble on expression in E. coli; label from the status in PepcDB or PDB records
row,Sequence,soluble on expression in E. coli
1,MGSDKIHHHHHHMMSWADKYRPKNIDDVILNSEIRKQITEWIESWKEGIPKKRSLILYGSQGTGKTTTAYAIAGTFGVPVVEMNASDQRNRDSMRGTALMASLYGDLFVESAKRPSKVILIDEADNMFERGGDTGGIYELSKIIKNSANPIVITMNDIFEFRKKNYASDVISASLTIEMKQYGRKLDKNYNEFRRNIKARLIFILKNEGYTLPDQVVDRIIDRNMPDIRSMINDLEASAVSGTNISDQSSRDVPEIVYYMVDKAFKRNYDDTLRSIYGSDIDDSYYVSWIDENLPLKTVDLQDLVSAYEVISYADHILWAMERRRHYELMAFPMEIAGGVAYYIENMKHEYVKYQSPSYISQMSKTKEKRHAMMSLALKIGLLIHMGAQRTSEDLWFYSLLYQHNEKLRTFFEEKLNLTQGEENVLTRSE,not soluble
2,MGSDKIHHHHHHMKKPFLHSESAADVGMEIQQSYDRLLETTRKWIDILHFDPLLETGLTPRDIVWRKNKSRLYRYVNHKGYKHRTPILMLYALINKAYILDLRPGMSLVEYLVDQGFDVYLLDWGEFDWEDRDLSFSQLIVDYISRAVYKVCQYSNVNELSILGYCMGGTMATMYASLYPQPRIKNMIYVAAPIDFEDAGLSSIWLKASVFDVDKVTDTFSLIPKEFVDLGLKMLNPVNNFVATYTRLWKAIDEGVSIEAWKALNKWVDDNINFPGKAYREWVKYLYQENALVKDEFIINGRKVVLSNIDAALLVLTGKTDHIVLPQQSTPILELSSSQDKTNLQYPVGHGGLVFGSRARNEVYPTIAEWLAQRS,not soluble
3,MRRLLLTLILAATLLGCSQAPQEKLKVGILPIEDSLPIVVADEQGFFKKHGLDVEVIQFSSAVERDAALTAGEVDAVITDPLAVILLRDKGYDVRIASLCLGKTPKEGVFAILAAPNSDIDSVEDLDGKEIAVSLNTIIEYALDVMLSEYGLNYTKISIPKIPIRMQALLNGNVETAVLPEPLASYAVSKGAKLILSDAMLNESITQTVIVFRGDVDDEKVQKFLEAYREAVREINANKEKYREKFIEIARVPENIAGSYPIPDYPEPQQLPKEYYDRYLEWAMQRGLIEKPVPYEEAIR,not soluble
4,MGSDKIHHHHHHMTLVSTLSFLKKLNKNNNKEWFDKNRSAYEEAKKEVKALVQLVIEKTAVFDPSIASLEPKDCMFRINRDVRFSKDKSPYKTNMGFMIAPGGKKSIKGCYYVHIEPGNCFIAGGIWMPMPEHLKLIRQEIDYNGDALKKIFSSKDVKKYFSDFDEESKLIRMPKDYEETHPYAEWLKLKSFTVTFPIDEAIFSDKKVVEEITKPFKGIHALNAFLNGALDS,not soluble
5,MGSDKIHHHHHHMDIKNKIKSIFLPEKNDYLDDEEFEYDIENNEEDLKEDNKVHLNDLSRVKYDYRELKDIENQTEEMCLLAVKQDGTIIEFVKDKTYKVCMEAVKQTYKSLKYITNQNEDICIEAVKQNYRALYYINNKTENVLIEAIKNASTYDVMEVFKFVEEQTEDVCLAFIERASKNDVAEILKGIKEQTPAICLEAVKKDGKSLAYVKEQSNSICLEAVKENYSALSCVKEQTEEICIEAVKQNDFALYYVNEQTEKICMEAVKRSYMALQYVNKQTEEICLEAVRIDGRALQYVKEQTEEICLESVRQNGKVLQYVKKQTENICIEAVRGSFEELEIKEILSYVKIPTERIFVEAVKQNGKILKYVENQTELICLEAVRENYNALAYVKEQTEKICLEAVNQSYEALKYVKEQTEEVCLKAVKQDYRMLKYVNNQTEKICLEAVKQNYRALEFVDNQTEKVCLEAVKQNRKALQYVKQKQS,not soluble
6,SDESDLPSAMPAVPAFGVEERNMVSGVLTLAERSIRSIMTPRTDVSWVNIDDDAATIRQQLTAAPHSFFPVCRGSLDEVVGIGRAKDLVADLITEGRVRRNRLRDPIIVHESIGILRLMDTLKRSRGQLVLVADEFGAIEGLVTPIDVFEAIAGEFPDEDELPDIVAESE,soluble
7,MGSDKIHHHHHHMSKNNNPVEQLLKEKPYILLDGALATELERHGRNLDDPLWSARVLLEEPEQIHRVHANYFKIGADCAITSSYQASVAGFSSRGIKEEEAIELMKQTVYLAQQARAETGPAADHALIAGSIGPYGAYLSDGSEYIGHYGVDDAQLEAFHRPRLEALIAAGADVLAFETIPSLQEAKMLFRLLEEFPEQSAWLAFSLRDATHISEGTPLSECIEALGDHPQLAAIGANCFPASIATEFITTLKQLTDVPIIVYPNSGEQYDPVSKTWSGETVRTAFEDIAPEWYAAGARLIGGCCRTTPEQIGEIRKIVHAQ,not soluble
8,MGSDKIHHHHHHMKRSGKVYIIGAGPGEEELITLKAIRKMKECTAVLYDRLVGQGILKYLNEKCEIYYCGKEPGCHYKTQDEINEMIIKLAKEGHIVGRIKGGDPYIFGRGGEEGLSLLKENIEFEVISGVTSPVAVLNYAGIPVTHRGIARSFHVFTAKTANDDSINFSAAAKIDGTLIFLMGYRQLNDITRKLIENGMDSKMPCAVVMRGTTSLQKKVIGNLSDIKEKCDNANMTSPCIIVVGKVVGFNQQLNWYEKKPLFGRNICITRSKNQSKTMREELLDLGAEVTEVHSIEIENTASNLEEYINKISEYDYIILTSVNAVEVLFDYLASKDYDVRKVRAKFAVIGNATKEALKKRGIVPEIVSRKHNGEGLFDEIRGYLKKDDKIFIPRSENSRKYIKEQLVSLGLSVDECFIYRTVPGKLYDKAAFENADTIVFTSPSTVKNMIALFGEKNIKKKSIIAIGPITGRELGKINAEYSTCSECSVDAIIRECLNSDK,not soluble
9,MGSDKIHHHHHHMSEGCAFAYPFIFVGANMKKIAFIGECMIELNGKPFGEMWQSYGGDTLNSATYLSRMSSPNDIQVYYVSALGSDNLSEQMRMHWQADGVNTDWVLKDENHQPGLYLIQLDEQGERTFLYWRNQSAAHYMVQHHDFSQVLSALEQVDMIYLSGISLAILPKNDRTFLLEQLIKLAKKGVQISFDSNFRPKLWDSFQEAQDCYLQLLPCVSLALVTFDDEQLLWNDTNEPATLTRLHQIGIPKVVVKCGRNGAIFSDSQTSQYGQVVPKPISNVVDTTSAGDSFNAGFLNGYLRNKPLDICCRQGNYVAGIVIQHKGAIIDKHATSHLQSEFN,not soluble
10,MSEAIGLIETVGLVAAIEAADAAVKAANVKLIGYELARGSGLTTVKIKGDVGAVKAAVEAGKAAALRVGKVYAVHIIPRPDKQVGFIVGEEKNLTLLMPVIEKEEKEKNDSEPKIKVTEGETIEKREIEQKFEKEDKSEAKEETGEVEEEDDKEGMAYTCNLCKDPGCPRKKGEPRTLCIHYNELKMR,not soluble
11,AQSRTLLAGIVQQQQQLLDVVKRQQELLRLTVWGTKNLQTRVTAIEKYLKDQAQLNAWGAAFRQVAHTTVPWPNASLTPKWNNETWQEWERKVDFLEENITALLEEAQIQQEKNMYELQKLNS,soluble
12,MSIILYTANDGTAQFALQEFGGQLWLTQADMAELYQTTKQNISKHIKTILAEQELEEKATVNFQLTVQNENGRKVNRKIAHYSLPMIIAVGYRVRSARGIQFRQWATERLDEYLTKGFAIDDERLKGTGGGDYWKELLNRIRDIRSSEKALYRQVLDLYATSQDYNPKSSESQTFFAAVQNKLHYAASRQTAAELIYSRADSSKDFMGLTTFQGAIPTLNEAKIAKNYLTEDELFRLNRLVSAFFDLAEIKAQEQSPMYMRDWIAELDKFSGLYGQGTLQGAGSISRKQAEQKAEREYRAYEARILSPVEQAYLESVKALEKTAVQQIKQKKDRTK,not soluble
13,MRHLFASLAFMLATSTVAHAEKLTLEAITGPLPLSGPTLMKPKVAPDGSRVTFLRGKDSDRNQLDLWSYDIGSGQTRLLVDSKVVLPGTETLSDEEKARRERQRIAAMTGIVDYQWSPDAQRLLFPLGGELYLYDLKQEGKAAVRQLTHGEGFATDAKLSPKGGFVSFIRGRNLWVIDLASGRQMQLTADGSTTIGNGIAEFVADEEMDRHTGYWWAPDDSAIAYARIDESPVPVQKRYEVYADRTDVIEQRYPAAGDANVQVKLGVISPAEQAQTQWIDLGKEQDIYLARVNWRDPQHLSFQRQSRDQKKLDLVEVTLASNQQRVLAHETSPTWVPLHNSLRFLDDGSILWSSERTGFQHLYRIDSKGKAAALTHGNWSVDELLAVDEKAGLAYFRAGIESARESQIYAVPLQGGQPQRLSKAPGMHSASFARNASVYVDSWSNNSTPPQIELFRANGEKIATLVENDLADPKHPYARYREAQRPVEFGTLTAADGKTPLNYSVIKPAGFDPAKRYPVAVYVYGGPASQTVTDSWPGRGDHLFNQYLAQQGYVVFSLDNRGTPRRGRDFGGALYGKQGTVEVADQLRGVAWLKQQPWVDPARIGVQGWSNGGYMTLMLLAKASDSYACGVAGAPVTDWGLYDSHYTERYMDLPARNDAGYREARVLTHIEGLRSPLLLIHGMADDNVLFTNSTSLMSALQKRGQPFELMTYPGAKHGLSGADALHRYRVAEAFLGRCLKP,soluble
14,MSLKVDSFSLPLSSPLATARETISQRSGFVVRYDHRGETGVGEATPLPGWTESLDDCQRGLNDAATVAAGGGHTDVLLSLDAASVPAARHGFATALLDADARADGVPLYQWFDSERHCNRVPVNATVGDGSPAETADAVERAVEAGYDCCKMKVGKRTVDEDVARVRTVRERVGDDVTLRADANGAWSRDRAQEAFDRLAPLDVAYVEQPLPADDLTGHAGLRGNGVGVALDESLVDRRVDSVLDADAADVLILKPMVLGGPGNAHTLALRAREQGVEPVVTTTIDAVVARLAALHVAAAIPDVAACGLATGDRLAADLAPDPTTVTDGAMSVPQSTGLGIDPTEVGTDAEGHHHHHH,soluble
15,MKLYSILVFHKNVDTSDVKLFKSECDLSSFSFFQRGSVQEFMTFTAKLLVERSGLGARSSVKENEYLVHCYVRNDGLSAVCVTDAEYQQRVAMSFLGRVLDDFTTRVPATQWPGIRSDKDCSYTGLKDLLEKWQNPREADPMTRVQEEVEETKMVMHNTIQSVLDRGEKLDDLVKKSENLSDQSKMFYTSARKMNKCCNYV,not soluble
16,NGKLFLVGTPIGNLKDITLRALETLQNCDVIAAEDTRQSLKLLNHFDIKKPLISYHKFNENNRSSELMDMVREGKKVALVTDAGMPGISDPGSVIVEKFIENNLEFEVIPG,soluble
17,MTLSIAHLGPPGTYAEQAAVLYVNWLTKSTGDEATLSPYPTISQSLHAVADGQAHLAVVPVENSIEGSVTTTLDALWQLDSLRIQLALVLPIVHTLISCASGLDKIETVYSHPQALAQCQGWLERFLPTVQIVPSNSTTEALQRLEQETTTAAIASSRAAQLYNLPILATGINDYPENCTRFWVVSQGEADAGYQTSKVPTSHTSLAFSMPANTPGALVKPLQIFAQLGINLSRIESRPTKRSLGEYLFFMDLEADVKESQMQSALAELTIHTEILKILGAYNVLPIGAFT,not soluble
18,MTIYPKLILDALATVRYPGTGKNLVEAGMVEDNIRIEGMKVSFSLIFEKPTDPFMKSVIKAAETAILTHVGKEVEIVGNISVKTVQAARPEVGKLLPHVKNIIGISSGKGGVGKSTVSANLAVALAKLGYKVGLLDADVFGPSMPKMFQVEDARPYAEKIDGRDMIIPVEKYGVKLLSIGFFVDPDQATLWRGGMASNALKQLIGDAAWGDLDYFLIDLPPGTSDIHLTVVQTLALTGAVVVSTPQAVALADARKGINMFTNDKVNVPILGLVENMAWFTPAELPENKYYLFGKEGAKKLAEEMNVPLLGQIPIVQSICEGGDKGTPVALDENTVTGRAFLALAASVVRQVDKRNVEMAPTKIVELHKLEHHHHHH,soluble
19,MAHHHHHHMYSDGERKTVSELQREAEATRKEIIEEAQRLERIKKATAKTQFSIDQLFRFFAREVETEGEKKMLIDLLSSNPPDLHIECVPVLPVVIAIANGRMTNARRIYATDNAFLDDSAFIFLVHTLRFLPQACKIDFLDISGTRVTERGMCFVLEMMIERNTPFTLVAKRLSIPSPEAEAMRARYASLMSALRDKKCCRFIQE,not soluble
